Test results taken from the Immune Epitope Database (IEDB).

Key:
HLA-B*40:01 = test: IEDB peptide-MHC binding, purified MHC/direct/fluorescence; filed as Kd, often an IC50 or EC50 that approximates it; ≥ and ≤ were set here for values at or beyond the usual limits of such assays; settings: source organism: Camelpox virus M-96
HLA-A*03:01 = test: as above; settings: source organism: Camelpox virus M-96
HLA-A*11:01 [1] = test: as above; settings: source organism: Camelpox virus M-96
HLA-A*69:01 = test: as above; settings: source organism: Camelpox virus M-96
HLA-A*31:01 = test: as above
HLA-A*02:01 [2] = test: as above; settings: source organism: Camelpox virus M-96
HLA-B*58:01 = test: as above
HLA-B*08:02 = test: as above; settings: source organism: Variola virus
HLA-A*01:01 [3] = test: IEDB peptide-MHC binding, purified MHC/competitive/fluorescence; filed as Kd, often an IC50 or EC50 that approximates it; ≥ and ≤ were set here for values at or beyond the usual limits of such assays; settings: source organism: Candida albicans SC5314
HLA-A*68:02 = test: as above
HLA-B*15:01 = test: as above
HLA-A*26:03 = test: as above; settings: source organism: Candida albicans SC5314
HLA-A*02:06 = test: as above
HLA-A*26:02 = test: as above; settings: source organism: Candida albicans SC5314
HLA-B*18:01 [4] = test: as above; settings: source organism: Candida albicans SC5314
HLA-B*15:17 = test: as above; settings: source organism: Candida albicans SC5314
HLA-A*26:01 [5] = test: as above; settings: source organism: Candida albicans SC5314
HLA-B*07:02 = test: as above
HLA-B*57:01 [6] = test: as above; settings: source organism: Candida albicans SC5314
HLA-B*27:05 [7] = test: as above; settings: source organism: Candida albicans SC5314
HLA-B*35:01 = test: as above; settings: source organism: Candida albicans SC5314
HLA-B*48:01 = test: as above; settings: source organism: Candida albicans SC5314
HLA-A*01:01 [8] = test: IEDB peptide-MHC binding, purified MHC/direct/fluorescence; filed as Kd, often an IC50 or EC50 that approximates it; ≥ and ≤ were set here for values at or beyond the usual limits of such assays; settings: source organism: Yersinia pestis
HLA-B*18:01 [9] = test: as above; settings: source organism: Yersinia pestis
HLA-A*26:01 [10] = test: as above; settings: source organism: Yersinia pestis CA88-4125
HLA-B*73:01 = test: as above; settings: source organism: Yersinia pestis CA88-4125
HLA-B*57:01 [11] = test: as above; settings: source organism: Yersinia pestis
HLA-B*27:05 [12] = test: as above; settings: source organism: Yersinia pestis
HLA-B*15:09 = test: as above; settings: source organism: Yersinia pestis CA88-4125
HLA-B*15:42 = test: IEDB peptide-MHC binding, purified MHC/competitive/fluorescence; filed as Kd, often an IC50 or EC50 that approximates it; ≥ and ≤ were set here for values at or beyond the usual limits of such assays; settings: source organism: Yersinia pestis KIM10+
HLA-C*06:02 = test: as above; settings: source organism: Yersinia pestis KIM10+
HLA-B*39:01 = test: as above; settings: source organism: Yersinia pestis KIM10+
HLA-A*11:01 [13] = test: as above; settings: source organism: Yersinia pestis KIM10+
HLA-B*83:01 = test: as above; settings: source organism: Yersinia pestis KIM10+
HLA-B*45:06 = test: as above; settings: source organism: Yersinia pestis KIM10+
HLA-B*27:20 = test: as above; settings: source organism: Yersinia pestis KIM10+
HLA-A*30:01 = test: as above; settings: source organism: Yersinia pestis KIM10+
HLA-A*02:01 [14] = test: as above; settings: source organism: Yersinia pestis KIM10+
HLA-A*02:03 = test: as above; settings: source organism: Yersinia pestis KIM10+
[15] = source organism: Camelpox virus M-96
[16] = source organism: Candida albicans SC5314
[17] = source organism: Yersinia pestis
[18] = source organism: Yersinia pestis KIM10+

Sequence: RVYNNTARY
- Kd (HLA-B*40:01): ≥ 20000 nM
- Kd (HLA-A*03:01): 50.7 nM
- Kd (HLA-A*11:01 [1]): 22.5 nM
- Kd (HLA-A*69:01): ≥ 20000 nM
- Kd (HLA-A*31:01; [15]): 432 nM
- Kd (HLA-A*02:01 [2]): ≥ 20000 nM
- Kd (HLA-B*58:01; [15]): 16 nM
- Kd (HLA-B*08:02): ≥ 20000 nM
- Kd (HLA-A*01:01 [3]): ≥ 20000 nM
- Kd (HLA-A*68:02; [16]): ≥ 20000 nM
- Kd (HLA-B*15:01; [16]): 187 nM
- Kd (HLA-A*26:03): ≥ 20000 nM
- Kd (HLA-A*02:06; [16]): ≥ 20000 nM
- Kd (HLA-A*26:02): 528 nM
- Kd (HLA-B*18:01 [4]): ≥ 20000 nM
- Kd (HLA-B*15:17): 1.5 nM
- Kd (HLA-A*26:01 [5]): 76.8 nM
- Kd (HLA-B*07:02; [16]): ≥ 20000 nM
- Kd (HLA-B*57:01 [6]): 655 nM
- Kd (HLA-B*27:05 [7]): ≥ 20000 nM
- Kd (HLA-B*35:01): 159 nM
- Kd (HLA-B*48:01): ≥ 20000 nM

Sequence: SRWAISHWL
- Kd (HLA-A*01:01 [8]): ≥ 20000 nM
- Kd (HLA-B*18:01 [9]): ≥ 20000 nM
- Kd (HLA-A*26:01 [10]): ≥ 20000 nM
- Kd (HLA-B*73:01): 167 nM
- Kd (HLA-A*31:01; [17]): ≥ 20000 nM
- Kd (HLA-B*57:01 [11]): ≥ 20000 nM
- Kd (HLA-B*27:05 [12]): 20.3 nM
- Kd (HLA-B*15:09): ≥ 20000 nM
- Kd (HLA-B*58:01; [17]): ≥ 20000 nM
- Kd (HLA-B*15:42): ≥ 5000 nM
- Kd (HLA-C*06:02): 82.2 nM
- Kd (HLA-A*68:02; [18]): ≥ 20000 nM
- Kd (HLA-B*39:01): 36.3 nM
- Kd (HLA-B*15:01; [18]): 1840 nM
- Kd (HLA-A*11:01 [13]): ≥ 20000 nM
- Kd (HLA-B*83:01): ≥ 5000 nM
- Kd (HLA-B*45:06): ≥ 5000 nM
- Kd (HLA-A*02:06; [18]): 8.6 nM
- Kd (HLA-B*27:20): 4.8 nM
- Kd (HLA-A*30:01): 2690 nM
- Kd (HLA-B*07:02; [18]): ≥ 20000 nM
- Kd (HLA-A*02:01 [14]): 76.2 nM
- Kd (HLA-A*02:03): 205 nM
